Experimental data from patent US12624123B2, “Compositions and methods for reducing off-target toxicity of antibody drug conjugates” (The Research Foundation for The State University of New York, priority 2019, dated 2026).
Several values for one entry are separate records, joined by “and”; a condition that tells them apart may be missing. Identical values can stand only once. Entries after “also recorded” stand apart in the source; their conditions may differ. Like-named read-outs stand apart in the source and are kept apart here.

Key:
NCI-N87 cells = test: Cell cytotoxicity with exatecan and trastuzumab deruxtecan, NCI-N87 cells; format: cell-based; conditions: for IC50: free exatecan alone
Experimental: Cells were incubated with the drug mixture for 24 hours at 37° C., 5% CO2. After incubation drug containing cell culture media was aspirated and 250 μL of fresh RPMI was added, allowing cells to grow for another 4 days. Then cell culture media was aspirated and 125 μL of RPMI with a final concentration of 1 mg/ml MTT was added followed by a four-hour incubation. MTT crystals were dissolved in 0.01 M HCL/10% SDS overnight at 37° C. followed by absorbance reading at 570 nm (corrected to 640 nm).

MOLM-14 cells = test: MTT cytotoxicity of calicheamicin on MOLM-14 cells; format: cell-based, human; conditions: 24 h, 100 μM peptide or sdAb
Experimental: (§1) Log-phase MOLM-14, Ramos (RA 1), HT-29, LS174T, or NCI-N87 cells were seeded in 96-well microtiter plates at a density of 20,000 cells/well, 20,000 cells/well, 5,000 cells/well, 5,000 cells/well, and 10,000 cells/well, respectively, in 100 μL of culture medium. HT-29, LS174T, and NCI-N87 cells were allowed to adhere for 24 h before cell culture media was aspirated and replaced with 100 μL of fresh media containing a range of treatment for, 48 (LS174T), 96 (NCI-N87), or 120 (HT-29) h. MOLM-14 and Ramos cells were re-suspended with treatment solutions, where 100 μL of cell-treatment suspension was aliquoted into wells of a 96-well plate for 24 h. Treatment solutions consisted of calicheamicin, MMAE, topotecan, or SN38 with or without immunized animal plasma, purified anti-drug antibody, or antibody-drug conjugate (ADC) with or without plasma or anti-drug antibody. For MOLM-14 and Ramos cells, 25 μL of MTT solution (5 mg/mL in pH 7.4 1× PBS) was added directly to wells following treatment incubation. For adherent cells, treatment media was aspirated from wells and cells were washed three times with 100 μL of fresh media. Following the final wash, 100 μL of complete media and 25 μL of MTT solution were added to each well. Cells were incubated for 4 h in order to allow cells to reduce MTT to formazan dye. Once MTT was reduced, 100 μL of 10% SDS prepared in 0.01 M HCl was added to each well and incubated overnight to solubilize the formazan crystals. Formazan dye was measured at 570 nm and normalized by cell debris at 690 nm.
(§2) Fresh media containing a range of treatment were pre-incubated with or without 100 μM purified sdAb at room temperature for 30 minutes. Log-phase MOLM-14 cells were seeded in 96-well microtiter plates at a density of 20,000 cells/well, and were re-suspended with treatment solutions, where 100 μL of cell-treatment suspension was aliquoted into wells of a 96-well plate for 24 h. 25 μL of MTT solution (5 mg/mL in pH 7.4 1× PBS) was added directly to wells following treatment incubation. […] Formazan dye was measured at 570 nm and normalized by cell debris at 690 nm.

SK-BR-3 cells [1] = test: MTT cytotoxicity assay in SK-BR-3 cells; format: cell-based
Ramos cells = test: MTT cytotoxicity of calicheamicin on Ramos cells; format: cell-based; conditions: 24 h, calicheamicin alone
Experimental: as §1, §2

Lovo cells = test: MTT cytotoxicity of DM1 and DM4 on Lovo cells; format: cell-based; conditions: for IC50: DM1 alone, read-out: IC50 of DM1
Experimental: Log-phase Lovo or MOLM-14 cells were seeded in 96-well microtiter plates at a density of 5,000 cells/well, in 100 μL or 70 μL of culture medium, respectively. […] MOLM-14 cells were re-suspended with treatment solutions, where 100 μL of cell-treatment suspension was aliquoted into wells of a 96-well plate for 24 h. Treatment solutions consisted of DM-4 with or without purified anti-drug sdAb. For MOLM-14 cells, 10 μL of MTT solution (5 mg/mL in pH 7.4 1× PBS) was added directly to wells following treatment incubation. For adherent cells, treatment media was aspirated from wells and cells were washed three times with 100 μL of fresh media. Following the final wash, 100 μL of complete media and 25 μL of MTT solution were added to each well. Cells were incubated for 4 h in order to allow cells to reduce MTT to formazan dye. Once MTT was reduced, 100 μL of 10% SDS prepared in 0.01 M HCl was added to each well and incubated overnight to solubilize the formazan crystals. Formazan dye was measured at 570 nm and normalized by cell debris at 690 nm.

[2] = SPR dissociation screening on DM1-Biotin chip; format: binding; conditions: 20 min dissociation phase
Experimental: Preliminary screening of DM1/4 binders were performed using a neutravidin SPR chip with DM1-Biotin on the left channel. Phagemid purified sdAbs were flowed over the SPR chip for 2 minutes at a flow rate of 25 ul/min. After binding, sdAb was dissociated for 20 minutes. Observed sensorgrams were fit to an individual dissociation rate constant for each construct. Equilibrium and kinetic binding of 3A2 was assessed using a CM5 SPR chip with TDM1 immobilized on the left channel. […] Rate constants for 3A2-TDM1 association and dissociation were obtained through fitting of the observed sensorgrams for the 1.25, 2.5, 5, 7.5 and 10 nM injections to a 1:1 Langmuir binding model.

SK-BR-3 cells [3] = test: MTT cytotoxicity assay in SK-BR-3 cells; format: cell-based; conditions: 24 h exposure, 10 μM sdAb
Experimental: Positive clone sdAbs' DNA in pComb3XSS plasmid was isolated and transferred into pET-22b expression vector in SHuffle cells for expression. SK-BR-3 cells were used to test the anti-DM4 sdAbs effect on DM4 cytotoxicity. Briefly, 2,500 cells/well were seeded into a 96-well plate and allowed to adhere for 24 h before cell culture media was aspirated and replaced with 100 μL of fresh media solution containing with or without 10 μM of anti-DM4 sdAb and a range of DM4 concentration for another 24 h exposure period. The cells were then washed 2 times before replacing with fresh media and allowed to grow for additional 72 h.

[4] = Competitive ELISA with free DM4; format: binding; conditions: for Kd: free DM4, read-out: Estimated KD; for IC50: read-out: Estimated binding affinity IC50 to free DM4
Experimental: To determine the binding affinity of the anti-DM4 sdAbs to DM4-conjugates and free DM4, indirect ELISA and competitive ELISA were employed. Briefly, ELISA plate were coated overnight with 100 μL of neutravidin at different concentration ranging from 1 μg/mL to 10 μg/mL. After blocking with 200 μL of 2% skimmed milk-PBST for 1 h, 100 μL of 1 μM biotin-DM4 solution was added into each well and incubated for 30 min, then 100 μL of purified anti-DM4 sdAb solution at concentration ranging from 0.1 nM to 1 μM was added and incubated for 1 h. Bound sdAbs were detected with HRP conjugated anti-His antibody and TMB substrate. After the linear range of binding was determined via the indirect ELISA, a concentration of anti-DM4 sdAb near the IC50 of binding was selected to proceed with competitive ELISA. For the competitive ELISA, anti-DM4 sdAb concentration was held constant as determined from the indirect ELISA and incubated with increasing concentration of DM4 ranging from 0.1 nM to 1 μM.

Molecule: CC[C@@]1(O)C(=O)OCc2c1cc1n(c2=O)Cc2c-1nc1cc(F)c(C)c3c1c2[C@@H](N)CC3 [exatecan, reference compound]
- IC50 (NCI-N87 cells; Homo sapiens, NCI-N87, NCI-N87 cells): 1.5 nM
- IC50 (NCI-N87 cells; NCI-N87 cells): 2.1 nM

Molecule: anti-calicheamicin peptide HSWHWPSWWAGGGGGS (SEQ ID NO:1) [C2]
- fold change of calicheamicin IC50 (MOLM-14 cells): 5.69 fold

Molecule: T-DM1 [reference compound]
- IC50 (SK-BR-3 cells [1]; 24 h, without DMFH1, read-out: IC50 of T-DM1): 0.0128 nM

Molecule: calicheamicin
- IC50 (Ramos cells): 2.5 nM and 2.98 nM
- IC50 (Ramos cells; listed as Calicheamicin): 2.5 ± 0.224 nM

Molecule: COc1cc2cc(c1Cl)N(C)C(=O)C[C@H](OC(=O)[C@H](C)N(C)C(=O)CCS)[C@]1(C)O[C@H]1[C@H](C)[C@@H]1C[C@@](O)(NC(=O)O1)[C@H](OC)/C=C/C=C(\C)C2 [DM1]
- IC50 (SK-BR-3 cells [1]; 24 h exposure, DM1 alone, read-out: IC50 of DM1): 4.43 nM
- IC50 (Lovo cells; 6 h exposure): 30.5 nM and 22.1 nM
- IC50 (Lovo cells; 24 h exposure): 3.07 nM and 2.12 nM

Molecule: anti-calicheamicin peptide SWWFPQWMAQYPGGGS (SEQ ID NO:2) [C9]
- fold change of calicheamicin IC50 (MOLM-14 cells): 3.56 fold

B1: 8C2 Fab: Fab of 8C2 by papain digestion; heavy SEQ ID NO:4, light SEQ ID NO:5 (antibody)
heavy: MKCSWVIFFLMAVVTGVNSEEVQLQQSGAELVKPGASVKLSCTASGFNIKDTYIHWVKQRPEQGLEWIGMIDLANDNTKYDPKFQGKATIITDTSSNKAYLQVSSLTSEDTAVYYCATWGAIITLGGWGQGTLVTVSAAKTTPPSVYPLAPGSAAQTNSMVTLGCLVKGYFPEPVTVTWNSGSLSSGVHTFPAVLQSDLYTLSSSVTVPSSTWPSETVTCNVAN
light: MSVLTQVLALLLLWLTGARCDIQMTQSPASLSASVGETVTITCRASGNIHNSLAWYQQIKGRSPQLLVYNAKTLADGVPSRFSGSGSGTQYSLKINSLHPEDFGSYYCQHFWSTPFTFGSGTKLEIKRADAAPTVSIFPPSSEQLTSGGASVVCFLNNFYPKDINVKWKIDGSEERQNGVLNSWTDQDSKDSTYSMSSTLTLTKD
modifications: 8C2 Fab heavy chain; 8C2 Fab light chain
- effect on trastuzumab deruxtecan cytotoxicity (NCI-N87 cells; NCI-N87 cells, ADC with 8C2 mAb or Fab): did not prevent cell death; also recorded: does not significantly alter

B2: DT3B3 (protein)
VHH: EVQLVESGGGLVQAGGSLRLSCALSGGTLRSYTMGWIRQAPGKEREFVAGNRWSGGRTYYADSVKGRFTISGDNAENTVYLQMNSLKPEDTAVYYCTADVTEYGEDSSAYWGRGTQVTVSS
modifications: DT3B3
- dissociation kinetics [2]: longest dissociation rates; also recorded: longer dissociation rates

B3: DF3A4 (protein)
VHH: QVQLQESGGGLVQPGGSLRLSCAASGSIFGISYMGWYRQAPGKQREPVALITSGGSTYYADSVKGRVTISRDNAKKTVYLQMNSLRPEDTSTYYCAAGFYRSDSPNRYDYWGQGTQVTVSS
modifications: DF3A4
- fold shift of DM4 IC50 (Lovo cells; 6 h exposure): 5.88 fold
- fold shift of DM1 IC50 (Lovo cells; 6 h exposure, 10 μM sdAb): 14.8 fold

B4: DMFB8 (protein)
VHH: QVQLQESGGGLVQPGGSLRLSCAASGSIFGISYMGWYRQAPGKQREPVAMITSGGSTYYADSVKGRVTISRDNAKKTVYLQMYSLRPEDTSTYYCAAGYYRSDSPNRYDYWGQGTQVTVSS
modifications: DMFB8
- Fold shifted (DM4 IC50) (SK-BR-3 cells [3]): 140 fold and 140.2 fold

B5: DMFH2 (protein)
VHH: QVQLQESGGGLVQPGGSLRLSCAASGSTFGISYMGWYRQAPGKQREPVAMITSGGSTYYVDSVKGRVTISRDNAKKTVYLQMNSLRPEDTSTYYCAAGFYRSDSPNRYDYWGQGTQVTVSS
modifications: DMFH2
- Kd [4]: 25 nM and 25.2 nM
- IC50 [4]: 25 nM
- Fold shifted (DM4 IC50) (SK-BR-3 cells [3]): 150 fold and 149.4 fold

B6: DMOF8 (protein)
VHH: QVQLQESGGGLVQPGGSLRLSCAASGSIFGISYMGWYRQAPGKQREPVAMITSSGSTYYADSVRGRVTISRANAKKTVYLQMNSLRPEDTSTYYCAAGYYRSDSPNRYDYWGQGTQVTVSS
modifications: DMOF8
- Kd [4]: 26 nM and 26.2 nM
- IC50 [4]: 26 nM
- Fold shifted (DM4 IC50) (SK-BR-3 cells [3]): 104 fold and 104.1 fold

B7: DMFF2 (protein)
VHH: QVQLQESGGGLVQPGGSLRLSCAASGSIFGISYMGWYRQAPGKQREPVALITSGGSTYYVDSVKGRVTISRDNAKKTVYLQMNSLRPEDTSTYYCAAGYYRSDSPNRYDYWGQGTQVTVSS
modifications: DMFF2
- Kd [4]: 57 nM and 56.6 nM
- IC50 [4]: 57 nM
- Fold shifted (DM4 IC50) (SK-BR-3 cells [3]): 95 fold and 93.65 fold

B8: DMOH9: affinity matured Anti-DM1/DM4 sdAb, SEQ ID NO:32 (protein)
VHH: QVQLQESGGGLVQPGGSLRLSCAASGSIFGITYMGWYRQAPGKQREPVAMITSGGSTYYADSVKGRVTISRDNAKKTVYLQMNSLRPEDTSTYYCAAGYYRSDSPNRYDYWGQGTQVTVSS
modifications: DMOH9
- Kd [4]: 20 nM and 19.9 nM
- IC50 [4]: 20 nM
- Fold shifted (DM4 IC50) (SK-BR-3 cells [3]): 210 fold and 209.5 fold

B9: DF4B12 (protein)
VHH: EVQLVESGGGLVQPGGSLRLSCAASGSIFGISYMGWYRQAPGKQREPVALITSGGDTAYGDSVKGRFTISRDNAKNTVYLQMNSLTPEDTSTFYCAAGFYRSDSPNRYDYWGQGTQVTVSS
modifications: DF4B12
- fold shift of DM4 IC50 (Lovo cells; 6 h exposure): 15.5 fold
- fold shift of DM1 IC50 (Lovo cells; 6 h exposure, 10 μM sdAb): 53 fold
- fold shift of DM4 IC50 (Lovo cells; 24 h exposure, 10 μM sdAb): 8.66 fold and 9.4 fold
